Measured values: publication PMC10958117, “G-site residue S67 is involved in the fungicide-degrading activity of a tau class glutathione S-transferase from Carica papaya” (The Journal of Biological Chemistry, 2024)

Key:
[1] = substrate: N[C@@H](CCC(=O)N[C@@H](CS)C(=O)NCC(=O)O)C(=O)O; experiment: purified protein, by the assay type; parameters: GSH conjugation with chloronitrobenzene substrate, absorbance at 340 nm, Km for glutathione; conditions: pH 7.2; 37.0 °C
purified protein = substrate: CN(C)C(=S)SSC(=S)N(C)C; experiment: purified protein; type: biochemical, Carica papaya; conditions: G-site; S67 necessary for activity

B1: TCpGST (Carica papaya) (protein)
chain: MADEVVLLDFWPSPFGMRIRIALAEKGIHYEYKEENLRNKSPLLLQMNPVHKKIPVLIHNGKPICESLIQIQYIDEVWSDKAPLLPSDPYQRAQARFWADYVDKKMYEAGRRVWTTKGEEQEGAKKEFIEILKTLEGELGEKPYFGGESFGYVDLTFIPFYTWFSVYESFGKMSIEAECPKLFSWVKRCLEKESVSKSLPDQDKVYGFVLELRKALGI
notes: wild-type full-length ORF, C-terminal His6, pET-30a, E. coli BL21(DE3)
[1]
  Km: 0.0300 ± 0.0083 mM
  Vmax: 552 µM/min
  kcat: 0.197 ± 0.0169 s⁻¹
  kcat/Km: 6550 M⁻¹ s⁻¹

B2: tau class glutathione S-transferase from Carica papaya (TCpGST) (Carica papaya) (protein)
chain: MADEVVLLDFWPSPFGMRIRIALAEKGIHYEYKEENLRNKSPLLLQMNPVHKKIPVLIHNGKPICESLIQIQYIDEVWSDKAPLLPSDPYQRAQARFWADYVDKKMYEAGRRVWTTKGEEQEGAKKEFIEILKTLEGELGEKPYFGGESFGYVDLTFIPFYTWFSVYESFGKMSIEAECPKLFSWVKRCLEKESVSKSLPDQDKVYGFVLELRKALGI
notes: full-length ORF (657 bp), C-terminal His6, pET-30a, E. coli BL21(DE3), Ni-NTA purified
Purified protein
  Km: 0.1484 ± 0.007 mM
